Test results as given in paper PMC2064791 (The Journal of Cell Biology, 2007).
Each block holds one binder with its values, some of them ahead of it.

Molecular target: T1, GST-tagged Dhh1(46–461) (S. cerevisiae, UniProt P39517 46-461)
T1 sequence (looked up): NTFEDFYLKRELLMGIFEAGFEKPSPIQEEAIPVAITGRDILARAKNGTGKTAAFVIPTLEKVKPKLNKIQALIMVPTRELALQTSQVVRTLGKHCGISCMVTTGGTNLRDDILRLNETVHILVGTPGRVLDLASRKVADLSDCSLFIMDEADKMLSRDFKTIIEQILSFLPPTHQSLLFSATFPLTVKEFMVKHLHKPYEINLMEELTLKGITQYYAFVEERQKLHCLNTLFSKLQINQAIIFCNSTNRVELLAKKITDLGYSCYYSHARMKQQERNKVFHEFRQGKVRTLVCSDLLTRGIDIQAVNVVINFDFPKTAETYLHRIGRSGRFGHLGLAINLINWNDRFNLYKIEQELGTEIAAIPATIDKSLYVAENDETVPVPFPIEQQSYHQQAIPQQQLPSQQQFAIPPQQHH
Experiment: pull-down

binding result: binds
B1: His-Dcp2(1–300)-Flag (domain or fragment, S. cerevisiae, UniProt P53550 1-300, looked up)
chain: MSLPLRHALENVTSVDRILEDLLVRFIINCPNEDLSSVERELFHFEEASWFYTDFIKLMNPTLPSLKIKSFAQLIIKLCPLVWKWDIRVDEALQQFSKYKKSIPVRGAAIFNENLSKILLVQGTESDSWSFPRGKISKDENDIDCCIREVKEEIGFDLTDYIDDNQFIERNIQGKNYKIFLISGVSEVFNFKPQVRNEIDKIEWFDFKKISKTMYKSNIKYYLINSMMRPLSMWLRHQRQIKNEDQLKSYAEEQLKLLLGITKEEQIDPGRELLNMLHTAVQANSNNNAVSNGQVPSSQE

binding result: binds
B2: His-Dcp2(102–300)-Flag (domain or fragment, S. cerevisiae, UniProt P53550 102-300, looked up)
chain: SIPVRGAAIFNENLSKILLVQGTESDSWSFPRGKISKDENDIDCCIREVKEEIGFDLTDYIDDNQFIERNIQGKNYKIFLISGVSEVFNFKPQVRNEIDKIEWFDFKKISKTMYKSNIKYYLINSMMRPLSMWLRHQRQIKNEDQLKSYAEEQLKLLLGITKEEQIDPGRELLNMLHTAVQANSNNNAVSNGQVPSSQE
